Source: publication PMC9201872
Read-outs that look alike come from different tables or passages of the source.

What was measured:
[1] = molecular target: TIM-SNAP-HA (Timeless, S-TIM) (Drosophila melanogaster); assay: pull-down
[2] = molecular target: TIM-SNAP-HA (Timeless, S-TIM) (Drosophila melanogaster); assay: pull-down; remark: listed apart in the source
[3] = molecular target: TIM-SNAP-HA (Timeless, S-TIM) (Drosophila melanogaster); assay: native gel or EMSA
[4] = molecular target: TIM-SNAP-HA (Timeless, S-TIM) (Drosophila melanogaster); assay: pull-down; remark: listed apart in the source

Chain of TIM-SNAP-HA (Timeless, S-TIM) (Drosophila melanogaster) (A4V040 whole entry): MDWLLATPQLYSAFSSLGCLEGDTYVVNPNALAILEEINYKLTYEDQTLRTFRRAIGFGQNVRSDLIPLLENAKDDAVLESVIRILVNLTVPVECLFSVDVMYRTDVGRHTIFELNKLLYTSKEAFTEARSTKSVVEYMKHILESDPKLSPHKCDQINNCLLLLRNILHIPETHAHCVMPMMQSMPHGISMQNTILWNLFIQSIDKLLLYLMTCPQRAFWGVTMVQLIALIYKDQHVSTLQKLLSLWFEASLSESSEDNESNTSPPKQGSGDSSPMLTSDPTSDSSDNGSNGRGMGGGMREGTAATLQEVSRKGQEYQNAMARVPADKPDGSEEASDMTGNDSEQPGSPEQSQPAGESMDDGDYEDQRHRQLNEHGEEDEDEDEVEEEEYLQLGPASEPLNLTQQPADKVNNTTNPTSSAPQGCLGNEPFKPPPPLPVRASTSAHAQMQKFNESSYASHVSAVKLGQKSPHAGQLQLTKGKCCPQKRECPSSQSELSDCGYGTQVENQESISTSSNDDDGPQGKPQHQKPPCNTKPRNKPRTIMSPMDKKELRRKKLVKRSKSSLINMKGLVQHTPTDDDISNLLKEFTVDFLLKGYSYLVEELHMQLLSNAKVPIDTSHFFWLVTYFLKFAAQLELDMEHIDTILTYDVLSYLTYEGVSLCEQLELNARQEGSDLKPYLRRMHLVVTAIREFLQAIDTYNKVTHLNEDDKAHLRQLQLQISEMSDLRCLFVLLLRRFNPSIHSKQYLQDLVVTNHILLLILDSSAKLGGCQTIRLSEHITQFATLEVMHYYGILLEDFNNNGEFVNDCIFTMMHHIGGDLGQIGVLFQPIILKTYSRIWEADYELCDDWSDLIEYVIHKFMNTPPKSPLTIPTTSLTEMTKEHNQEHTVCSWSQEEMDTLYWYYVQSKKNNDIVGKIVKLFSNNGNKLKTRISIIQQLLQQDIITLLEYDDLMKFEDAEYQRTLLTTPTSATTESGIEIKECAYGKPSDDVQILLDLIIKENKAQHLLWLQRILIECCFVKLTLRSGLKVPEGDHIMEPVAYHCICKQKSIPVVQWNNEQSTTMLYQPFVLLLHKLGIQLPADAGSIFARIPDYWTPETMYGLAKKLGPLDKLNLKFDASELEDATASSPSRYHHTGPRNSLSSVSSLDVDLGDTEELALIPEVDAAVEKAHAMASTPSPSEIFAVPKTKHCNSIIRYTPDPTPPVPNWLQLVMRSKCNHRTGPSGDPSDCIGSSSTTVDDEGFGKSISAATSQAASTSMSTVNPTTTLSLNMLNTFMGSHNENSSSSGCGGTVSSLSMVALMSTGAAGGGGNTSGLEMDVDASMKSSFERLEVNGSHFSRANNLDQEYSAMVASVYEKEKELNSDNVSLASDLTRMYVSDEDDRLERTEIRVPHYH

## CLIP-CRY H377A (from UniProt O77059 1-539) (natural protein)
[1]
  Kd: 18.1 µM

## CLIP-CRY H377L (from UniProt O77059 1-539) (natural protein)
[2]
  fold greater affinity than CRYΔ: 10 fold
[1]
  fold greater affinity than CRYΔ: 10 fold

## CLIP-CRY W394F (from UniProt O77059 1-539) (natural protein)
[1]
  fold difference in KD against CRYΔ: 35 fold

## CLIP-CRYΔ (residue 1-520) (from UniProt O77059 1-520) (domain or fragment)
[3]
  stoichiometry N: 1.08
[4]
  Kd: 1.5 µM
[1]
  Kd: 1.7 µM
